Patent US12077763B2, “RNA-based control of powdery mildew” (Greenlight Biosciences, Inc., priority 2021, dated 2024)

Test system: E. necator
Test: Leaf disc assay, dry inoculum (settling tower), decrease in disease severity / hyphal growth (Example 2)
Settings: decrease in disease severity (hyphal growth) relative to untreated control, value ± SE; for % decrease =/− SE TP1: time point 1 (untreated control hyphal growth ≥50%); for % decrease =/− SE TP2: time point 2

B1: GS1835: dsRNA trigger SEQ ID NO 159; gene target Probable glutamine--fructose-6-phosphate aminotransferase [isomerizing] (nucleic acid)
DNA: CCGATGACAAGGGGAGATCCTTTTCTTGCCGCAATTACTTCATGGGGATAATGGACTGATTTTAGTAGAAGTCCAAATGCTCCTTGCAGCTCCTTGATGACGGCCTTAGCTAAGTCCGTAAAAGTAATTGTTGGGTGCTGGTCATATATATACTTAGCAAGCTTGGCAATACACTCAGTATCAGTCTCTGTCTCAAATTTATGGCCCTTTGAGATAAGTAGGGTTTTGAGCTCTTTATAGTTTATTATGATTCCATTATGAACAACACTGAACTGCCATTTGGGGTCACTACGATGAGGATGGCAATTCAATCTTGATGGAGGGCCATGGGTGGCCCATCTAGTATGTGCAATACCAGCATGGGAGTCAAAAACTTTGGAGTTATCTAGTTGCGACTCCTGGACAAGTTGCTTTAATTTTGCAACCTTTCCAACTTCTTTGAACGCAAAAACTTCATCTTTTTCATCCCCGTCAATTGCGAGCCCGGCACTGTCGTAGCCACGGTATTCCAAGCGAGAGAGACCGTTGACAAGTGTTTCAAGAATGTGTTTGCGATCCTTTTCAATGAGATAATTAATATAGCCAAAGAT
- % decrease =/− SE TP1: 25 ± 6%
- % decrease =/− SE TP2: 24 ± 6%

B2: GS1839: dsRNA trigger SEQ ID NO 194; gene target Thioredoxin (nucleic acid)
chain: CTGACCGGGGCGCTATTACGATTAAATGAGCTGTTTTCCCCAGCGCTATAAGCATCCAGGGAGAATAAGGTTACAAAATATAATCCGAAAAAAGATAAAAAAGTATTTATCAATTGTTTCAAATCGAATGGCTTAGACAACTGTGTACTCGGACTCTTAGTACTCCCTAGAGTTCGTCCTTCTGAGGTATATGATAGACCTTCTAGGCCTGCAAGTCTGATGACAGACTCGATAGCAGTTCTTAAAGTAGACTGATCAGCGCCACGGATCGTATTGGCAATAGAGCCAGATCGAAAGATAATGAAGCTGGGAAGTGCTCTAACTCCATAACGCTGAGAAATATCCTGGTGATTGTCTACATTGACCTTGACAAAGGTGATCCTGTTCGGTTTCGAGTATTTGGAAGCAAGACTTTCGAAGGTGGGAGCAATAGCATTACATGGGCCGCACCAGTCGGCATAAACTAACCCAGCCATTAGTAGATTTAGTTAATCGGTGACGACTACTTTTGAAGAGTTCAAAATTTTGTCAAACTGAGATGAGGATCTGATACGGATAGACATGCTTTCTTTCTGTTCAA
- % decrease =/− SE TP1: 20 ± 7%
- % decrease =/− SE TP2: 18 ± 7%

B3: GS1837: dsRNA trigger SEQ ID NO 199; gene target UDP-glucose: glycoprotein glucosyltransferase 1 (nucleic acid)
DNA: AAAATCTAGGCAAATCCTTGAAAAACTCAGAGCTTTTTTTTTCAATAAAATTCAAGTCAAAAAAATTCAGATCTTTTCGATTTTCAGGAATAATCAATTTATTTCTGCGATTTATCGCTTGATTTAAAAATATACTAGGCACCCAAAAATCTTGACTTCTCACATTTTCTGTCCCAAGGACAATAGTTTGCTGAATTAATTGTAGATCTGTATATATCTGTTGACTCATTTTCTGAAGCCAGAATTCATCTTTCGGTATAACAACGCCATTAATGATAACTGGGGGAACAAGGTCATCTGCACAAATCCTGTCTACCCATTTTTGGGACGATTGAATTCGACTCTCGAGCTCATCTGATTTCAAAACTTCGTCGAAAATTATTCGGGTTTTATTAGTCTTAATTTTTGCTTTCTGGGTGATTTGGTCGAATACATCCTTACTGTTTAAGCTAAGCTTTGATTCATTTTGTGACCGTAAATATGCTATTGCAGTTTGTAATCCATAAATTTCAATAAGGTGATAAATTACTTTTGCTTCGATTGCAGCATTTGAGTTTCTGATGACGGGAATGAGACCAATTCGGAT
- % decrease =/− SE TP1: 15 ± 7%
- % decrease =/− SE TP2: 18 ± 8%

B4: GS1830: dsRNA trigger SEQ ID NO 178; gene target Regulator of nonsense transcripts 1 homolog (nucleic acid)
DNA: CCGAGTTAAAGCTACATTTAAACGTCTTGGGTCACTTAAGAACCCAATTCCTTGATGGTCATTTGATCGAACACATGATAAAACAATGAAGTCTTTTTCACGCCCTTGAAAAGCATCGACTGAAGCAACTTCAATTTCCCTGTAGTTTTCTTTTTTAAAAGTACCAGTGTTTTGCATAGAGCTTACAACGTAACTTCGCTGACCTTCGTAAGGTGTAATAACTCCAATATCGGCAGGCTGAACACCTGCTTTGAAAAATCGGGTTACTATTTTTTCAACATTAGAAGCCTCTGTGCGATTAAGATATGATGTTCCTGAAGCAGAAATCTCTTCATTTCCGAGATTAGACCAAAACATCATCGGTGTATCTCCAACTGGCCAAGGAAAGTCAACTTCATCTCTAAGCCGCTCTTGCATCGTCACACCATTCTGGAGAGTTCCTTCATAGAACATATTTGACGGAAACTCTGATAGGCATGGATGCATACGATACTGGATATTGAGTCGAATAGGGTGCATTTCCAACATGACTAGACGTTCAAAAAGTGACTGATTTAAACCTGCTTTGGCAGCTTTTTTATTCATAATAAC
- % decrease =/− SE TP1: 36 ± 4%
- % decrease =/− SE TP2: 24 ± 5%

B5: GS1836: dsRNA trigger SEQ ID NO 121; gene target Integral membrane protein/Pth11 homolog (nucleic acid)
DNA: GCTTTTCAATGTCGACCTGCAAACTACCTTTGGCAACAACTTGATTCAAAATTATATTCTGGAAGCTGTTTGAGCAAGGAGAGTATAGCCGATATTATATATGCTCATGCATCTATAAGTTGTTTAATTGACTGGATCTTTGGGATATTACCGATTTTAATTCTCTGGAAACTCGACATGAAGTTCAAGACCAAGCTCTCTATAATGATCGTTCTTTCATTAAGTATAGTAGCCTCTATAGCTACTGTTATACGTATTATTTACCTCCATATTCTTAAGAATGTGTCACAATCCGGTTGGGATGGTTTTGGATTAATAAAATGGTCTTTACTAGAACCAGCCATTGCCTTGACAGCTGCAAATATTGCAACTCTCAGGCCACTTACGCAAAAGTTATTTTCAAAAAAACGACGACCATCTAAATCACAACCACCTAAGCTTTCTCTCAATGCTATTCGGGGCTTAAGTCGGAAGTCTTCAGTATGTTGTTCAAGTGAATTTGCAGATATGTTAGGGCTAGCAGTATCACCTGGCGTGAAAACTCGAGTCTATGCTGATAGAAGACTTGATAACACTATCCAAAAAAGA
- % decrease =/− SE TP1: 23 ± 6%
- % decrease =/− SE TP2: 22 ± 6%

B6: GS1834: dsRNA trigger SEQ ID NO 189; gene target Tubulin beta-2 chain (nucleic acid)
DNA: CTCGTCCATTCCTTCTCCAGTATACCAATGTAAGAAAGCTTTTCTTCTAAACATAGCTGTGAATTGATCCCCAACGCGCTTAAAGAGTTCTTGAATGGAAGTGGAGTTTCCTACAAATGTAGATGACATCTTAAGACCACGAGGTGGAATAGAGCAGAGTGCGGTTTGTACATTATTAGGGATCCACTCGACAAAATATGCAGAGTTCTTATTTTGTACATTGCGCATTTGGTCCTCTACTTCTTTCATTGATACCTTACCTCGAAATATTGCTGAACATGTTAAATAGCGCCCGTTTCGGAAATCAGACGCTGCCATCATATTTTTGGGGTCGTACATTTGCTGAGTCAACTCGGGAACAGTAACTGCGCGGAAAGAGTGGGCACCGCGACTTGTTAGAGGAGCAAATCCAACCATAAAAAAATGAAGACGAGGAAATGGAACCATGTTAACTGCTAACTTTCGAAGATCTGAGTTGAGTTGACCTGGGAAACGAAGACATGTTGTTACACCTGACATGACTGCAGATACCAAATGATTCAAATCACCATATGATGGGTTTGAAAGCTTTAAAGTTCTCATACATATTT
- % decrease =/− SE TP1: 8 ± 4%
- % decrease =/− SE TP2: 15 ± 6%

B7: GS1833: dsRNA trigger SEQ ID NO 151; gene target Eukaryotic translation Initiation factor 3 subunit G (nucleic acid)
DNA: ACCTCACTAGGGCCTTCAGTAGTTTCATTAATACTAGTTAAAGCATCTCCGCTGTTTTCTTCACCAATTGGAGCCATTGTATCTTTAAAGGGACATCGGGCTGTAAAATGCTCTCCATTACATATACGACATTTAACTTTCTTATCTTTTAATTTGTCTTTCATTATTCCTGCCTCTGTTTTTTCATCTTTGGCATCTTTTTTCCAGTTGGCACTCGGTCTGAAAGTTATATTTTCACCAATAGATGTGGTTGAGCTATCTGGTCCGGGTTGATCTTTAGCAGAGAGTCCAAATTTACTCCACTGCTTTCTCTCGGCAACTCTAGGATTTACAATTTCTTTGTGTGTAGTGAAACGAATTCGTCTGGTATATTTGATCTTTTTTCCATCTTCATCGATTCGATAACTTACGATAGTTTGAGAGCCATCTTTATTAGTTGTTGTAGTTGTAGGAGGAAGTTGTTCTTCAATCCGGTCAACGGAAAGATCTTCATCGTCGGCCCAGTCAGCGCGAACAGATTGTTTAGACATTTTTCAAAATATTTTAATTAAATACTTGCAAATGGAAAGCTTGTAAATTCAAGCAAGTAT
- % decrease =/− SE TP1: 12 ± 5%
- % decrease =/− SE TP2: 7 ± 5%

B8: GS1831: dsRNA trigger SEQ ID NO 115; gene target glycosyl_partial (nucleic acid)
DNA: CTGAATTGTTTTGAGACTGTTTATTACGAAACCCATTACTTTTGTCTTTGATATGGAATCTCCGATTGACAAACAATGTTTCGTCAGGTTTTGGTTCATAGCTAGTGGTCATTCCAATGGCACCTCTAATGTTATTAATAACAGTATTGAGTGATTGCTCAGGCATTAAACAAGCTGGGCGACATTCGGGTATATTTGAAACAGATTGTAAAATTTTGTCACGAAGGGTTGTTTCGTCTTGAAAATTTGGTCGCAAGCATAACTGGAGATTACGAAGTTGTTTTACTAATATTTCAAATACATCAAGCAATGGCTTTTCAGAATGTTGACTAGAAAGAAGTTGCAAGGTAATTTTGTTCCATTCATTCTGTGCATTTCTCTGTTTTTGTGGTCCTTCAAATTGGCCAAGCATTAATTGAGAGATTTCATCGATCTGTATTGCATTGCTACAGCGATGATGGTAGAAGTCTAATGCTTCTTTGTTAAACATTAAGAACATAGAAGACAGGATGTCTTTTTCATTTTCGATGCTCGCTAATTCGCATTTTTTCAAAAAGATGTTTAACTTGAAGTTATAGCTATCATCTTTT
- % decrease =/− SE TP1: 34 ± 6%
- % decrease =/− SE TP2: 19 ± 6%
